Reference: patent US20100255578A1

Columns and labels:
H296-H296-H296-HT [1] = test: ELISA; H296-H296-H296-HT coated at 3 ug/mL; HRP-labeled FNH3-8, ABTS; blank subtracted
H296-H296-H296-HT [2] = test: ELISA; H296-H296-H296-HT coated at 1 ug/mL; HRP-labeled FNH3-8, ABTS; blank subtracted
H296-H296-H296-HT [3] = test: ELISA; H296-H296-H296-HT coated at 2 ug/mL; HRP-labeled FNH3-8, ABTS; blank subtracted
[4] = target: H-296, a polypeptide comprising a heparin binding domain and a CS-1 domain of fibronectin (Homo sapiens (Human)) (UniProt P02751); test: ELISA as in Example 34; H-296 coated at 50 ug/mL in pH 5.6 acetate buffer; HRP-labeled FNH3-8
H296-H296-HT [5] = test: ELISA; H296-H296-HT coated at 25 ug/mL; HRP-labeled FNH3-8, ABTS; blank subtracted
H296-H296-H296-HT [6] = test: ELISA; H296-H296-H296-HT coated at 25 ug/mL; HRP-labeled FNH3-8, ABTS; blank subtracted
[7] = target: H-296, a polypeptide comprising a heparin binding domain and a CS-1 domain of fibronectin (Homo sapiens (Human)) (UniProt P02751); test: ELISA; H-296 coated at 25 ug/mL in 0.2 M phosphate buffer pH 6.2; HRP-labeled FNH3-8, ABTS
[8] = target: H-296, a polypeptide comprising a heparin binding domain and a CS-1 domain of fibronectin (Homo sapiens (Human)) (UniProt P02751); test: ELISA; H-296 coated at 50 ug/mL in 0.2 M acetate buffer pH 5.6; HRP-labeled FNH3-8, ABTS
[9] = target: H-296, a polypeptide comprising a heparin binding domain and a CS-1 domain of fibronectin (Homo sapiens (Human)) (UniProt P02751); test: ELISA; H-296 coated at 50 ug/mL in 0.2 M phosphate buffer pH 8.0; HRP-labeled FNH3-8, ABTS
[10] = target: H-296, a polypeptide comprising a heparin binding domain and a CS-1 domain of fibronectin (Homo sapiens (Human)) (UniProt P02751); test: ELISA; H-296 coated at 25 ug/mL in 0.2 M phosphate buffer pH 6.8; HRP-labeled FNH3-8, ABTS
[11] = target: H-296, a polypeptide comprising a heparin binding domain and a CS-1 domain of fibronectin (Homo sapiens (Human)) (UniProt P02751); test: ELISA as in Example 34; H-296 coated at 12.5 ug/mL in pH 5.6 acetate buffer; HRP-labeled FNH3-8
[12] = target: H-296, a polypeptide comprising a heparin binding domain and a CS-1 domain of fibronectin (Homo sapiens (Human)) (UniProt P02751); test: ELISA as in Example 34; H-296 coated at 25 ug/mL in pH 5.6 acetate buffer; HRP-labeled FNH3-8
H296-H271 [13] = test: ELISA; H296-H271 coated at 15 ug/mL; HRP-labeled FNH3-8, ABTS; blank subtracted
H296-H296-HT [14] = test: ELISA; H296-H296-HT coated at 10 ug/mL; HRP-labeled FNH3-8, ABTS; blank subtracted
[15] = target: H-296, a polypeptide comprising a heparin binding domain and a CS-1 domain of fibronectin (Homo sapiens (Human)) (UniProt P02751); test: ELISA; H-296 coated at 25 ug/mL in 0.2 M phosphate buffer pH 8.0; HRP-labeled FNH3-8, ABTS
H296-H296-H296-HT [16] = test: ELISA; H296-H296-H296-HT coated at 5 ug/mL; HRP-labeled FNH3-8, ABTS; blank subtracted
[17] = target: H-296, a polypeptide comprising a heparin binding domain and a CS-1 domain of fibronectin (Homo sapiens (Human)) (UniProt P02751); test: ELISA; H-296 coated at 25 ug/mL in 0.2 M acetate buffer pH 5.6; HRP-labeled FNH3-8, ABTS
H296-H296-HT [18] = test: ELISA; H296-H296-HT coated at 2 ug/mL; HRP-labeled FNH3-8, ABTS; blank subtracted
[19] = target: CH-296, a polypeptide comprising a cell binding domain, a heparin binding domain and a CS-1 domain of fibronectin (Homo sapiens (Human)) (UniProt P02751); test: ELISA; CH-296 coated at 25 ug/mL; HRP-labeled FNH3-8, ABTS; blank subtracted
[20] = target: H-296, a polypeptide comprising a heparin binding domain and a CS-1 domain of fibronectin (Homo sapiens (Human)) (UniProt P02751); test: ELISA as in Example 34; H-296 coated at 6.25 ug/mL in pH 5.6 acetate buffer; HRP-labeled FNH3-8
[21] = target: H-296, a polypeptide comprising a heparin binding domain and a CS-1 domain of fibronectin (Homo sapiens (Human)) (UniProt P02751); test: ELISA; H-296 coated at 50 ug/mL in 0.2 M acetate buffer pH 5.0; HRP-labeled FNH3-8, ABTS
H271-H296 = test: ELISA; H271-H296 coated at 14 ug/mL; HRP-labeled FNH3-8, ABTS; blank subtracted
H296-H271 [22] = test: ELISA; H296-H271 coated at 7 ug/mL; HRP-labeled FNH3-8, ABTS; blank subtracted
[23] = target: H-296, a polypeptide comprising a heparin binding domain and a CS-1 domain of fibronectin (Homo sapiens (Human)) (UniProt P02751); test: ELISA; H-296 coated at 25 ug/mL in 0.2 M acetate buffer pH 3.8; HRP-labeled FNH3-8, ABTS
[24] = target: H296-H296 (modified fibronectin fragment in which two H-296's are connected); test: ELISA as in Example 34; H296-H296 coated at 6.25 ug/mL in PBS; HRP-labeled FNH3-8
H296-H296-HT [25] = test: ELISA; H296-H296-HT coated at 5 ug/mL; HRP-labeled FNH3-8, ABTS; blank subtracted

Sequence of H296-H296-H296-HT (chain, as listed by the source limits assumed): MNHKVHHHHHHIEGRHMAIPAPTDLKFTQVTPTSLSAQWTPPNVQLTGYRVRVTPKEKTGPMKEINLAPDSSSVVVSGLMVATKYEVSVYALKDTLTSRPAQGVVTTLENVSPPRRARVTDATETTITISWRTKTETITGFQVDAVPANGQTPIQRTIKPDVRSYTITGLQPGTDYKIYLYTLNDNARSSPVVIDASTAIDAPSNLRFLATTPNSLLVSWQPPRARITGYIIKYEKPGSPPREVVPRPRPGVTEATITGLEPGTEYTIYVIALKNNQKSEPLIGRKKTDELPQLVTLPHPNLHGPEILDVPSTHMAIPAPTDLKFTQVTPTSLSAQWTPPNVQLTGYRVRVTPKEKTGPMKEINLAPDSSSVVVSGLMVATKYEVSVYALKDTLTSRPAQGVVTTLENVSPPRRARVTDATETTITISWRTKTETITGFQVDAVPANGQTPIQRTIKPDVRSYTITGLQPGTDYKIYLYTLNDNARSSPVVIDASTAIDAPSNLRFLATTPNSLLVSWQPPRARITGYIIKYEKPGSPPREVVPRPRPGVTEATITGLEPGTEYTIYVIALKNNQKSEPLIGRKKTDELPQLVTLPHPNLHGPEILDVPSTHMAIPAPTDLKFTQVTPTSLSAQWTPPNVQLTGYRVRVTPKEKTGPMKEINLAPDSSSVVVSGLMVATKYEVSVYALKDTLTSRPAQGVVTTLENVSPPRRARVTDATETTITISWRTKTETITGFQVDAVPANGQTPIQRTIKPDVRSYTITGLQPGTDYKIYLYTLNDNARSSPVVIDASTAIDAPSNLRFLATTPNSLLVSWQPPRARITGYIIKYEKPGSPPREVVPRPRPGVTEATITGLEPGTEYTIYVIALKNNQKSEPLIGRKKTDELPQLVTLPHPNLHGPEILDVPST
Sequence of H296-H296-HT (chain, as listed by the source limits assumed): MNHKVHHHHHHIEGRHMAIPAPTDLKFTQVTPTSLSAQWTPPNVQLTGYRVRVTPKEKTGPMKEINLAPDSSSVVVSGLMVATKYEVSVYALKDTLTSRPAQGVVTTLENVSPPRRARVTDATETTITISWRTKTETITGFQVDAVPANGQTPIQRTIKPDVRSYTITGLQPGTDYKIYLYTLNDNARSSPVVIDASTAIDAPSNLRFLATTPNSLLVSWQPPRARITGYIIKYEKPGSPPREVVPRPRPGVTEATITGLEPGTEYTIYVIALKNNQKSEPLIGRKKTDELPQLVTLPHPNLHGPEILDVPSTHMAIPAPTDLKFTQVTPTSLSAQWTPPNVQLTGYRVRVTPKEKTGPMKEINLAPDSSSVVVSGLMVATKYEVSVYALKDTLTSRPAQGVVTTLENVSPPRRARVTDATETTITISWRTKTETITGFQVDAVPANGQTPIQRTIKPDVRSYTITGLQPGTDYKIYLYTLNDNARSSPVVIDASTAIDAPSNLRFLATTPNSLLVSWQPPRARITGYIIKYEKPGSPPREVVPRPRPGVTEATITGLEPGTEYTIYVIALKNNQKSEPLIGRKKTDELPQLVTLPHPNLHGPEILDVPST
Sequence of H296-H271 (chain, as listed by the source limits assumed): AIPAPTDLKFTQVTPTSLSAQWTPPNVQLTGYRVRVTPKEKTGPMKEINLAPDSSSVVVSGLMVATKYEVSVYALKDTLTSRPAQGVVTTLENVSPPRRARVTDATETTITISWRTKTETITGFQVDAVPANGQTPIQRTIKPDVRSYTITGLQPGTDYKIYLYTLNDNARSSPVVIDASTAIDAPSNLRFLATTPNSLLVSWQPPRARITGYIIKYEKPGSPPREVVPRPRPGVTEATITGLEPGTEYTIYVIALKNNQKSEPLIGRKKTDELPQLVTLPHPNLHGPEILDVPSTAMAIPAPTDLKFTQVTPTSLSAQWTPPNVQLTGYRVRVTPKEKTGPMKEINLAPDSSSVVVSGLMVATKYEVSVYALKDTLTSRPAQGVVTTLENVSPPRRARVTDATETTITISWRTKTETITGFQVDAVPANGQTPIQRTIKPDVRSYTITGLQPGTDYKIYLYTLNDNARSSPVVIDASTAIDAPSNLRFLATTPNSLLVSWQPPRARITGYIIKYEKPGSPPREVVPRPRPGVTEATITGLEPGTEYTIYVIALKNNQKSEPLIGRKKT
Sequence of H271-H296 (chain, as listed by the source limits assumed): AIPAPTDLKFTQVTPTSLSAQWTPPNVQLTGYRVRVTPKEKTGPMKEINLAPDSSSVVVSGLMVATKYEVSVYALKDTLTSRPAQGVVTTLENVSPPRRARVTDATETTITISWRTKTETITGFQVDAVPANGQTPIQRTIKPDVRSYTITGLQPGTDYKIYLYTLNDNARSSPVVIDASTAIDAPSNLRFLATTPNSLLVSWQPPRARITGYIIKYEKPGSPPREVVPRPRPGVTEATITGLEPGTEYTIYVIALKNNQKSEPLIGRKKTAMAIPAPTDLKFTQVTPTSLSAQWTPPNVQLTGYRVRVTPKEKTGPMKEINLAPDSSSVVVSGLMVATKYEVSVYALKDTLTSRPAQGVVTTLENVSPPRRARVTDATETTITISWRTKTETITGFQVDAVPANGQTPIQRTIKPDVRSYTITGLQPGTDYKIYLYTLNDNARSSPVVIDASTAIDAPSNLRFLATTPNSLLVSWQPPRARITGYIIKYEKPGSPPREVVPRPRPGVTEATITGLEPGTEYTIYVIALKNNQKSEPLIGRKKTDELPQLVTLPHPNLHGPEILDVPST

For “FNH3-8 antibody (manufactured by TAKARA BIO INC.) labeled with HRP”, the 405 nm (Found Value - Blank) (H296-H296-H296-HT [1]) was 0.743, the 405 nm (Found Value - Blank) (H296-H296-H296-HT [2]) was 0.261 and the 405 nm (Found Value - Blank) (H296-H296-H296-HT [3]) was 0.545. It also gave an absorbance at 405 nm [4] of 0.304, a 405 nm (Found Value - Blank) (H296-H296-HT [5]) of 0.965 and a 405 nm (Found Value - Blank) (H296-H296-H296-HT [6]) of 0.991. The absorbance at 405 nm [7] was 0.131, the absorbance at 405 nm [8] was 0.567 and the absorbance at 405 nm [9] was 0.174. The absorbance at 405 nm [10] was 0.075, the absorbance at 405 nm [11] was 0.277 and the absorbance at 405 nm [12] was 0.224. It also gave a 405 nm (Found Value - Blank) (H296-H271 [13]) of 0.635, a 405 nm (Found Value - Blank) (H296-H296-HT [14]) of 0.976 and an absorbance at 405 nm [15] of 0.104. The 405 nm (Found Value - Blank) (H296-H296-H296-HT [16]) was 0.87, the absorbance at 405 nm [17] was 0.475 and the 405 nm (Found Value - Blank) (H296-H296-HT [18]) was 0.54. The 405 nm (Found Value - Blank) [19] was 0.564, the absorbance at 405 nm [20] was 0.221 and the absorbance at 405 nm [21] was 0.451. The 405 nm (Found Value - Blank) (H271-H296) was 0.605, the 405 nm (Found Value - Blank) (H296-H271 [22]) was 0.518 and the absorbance at 405 nm [23] was 0.243. It also gave an absorbance at 405 nm [24] of 1.29 and a 405 nm (Found Value - Blank) (H296-H296-HT [25]) of 0.878.
